Laboratory results: the nanobody polyreactivity screen of Harvey et al. (2022)

Assay: yeast display, Sf9 membrane polyspecificity reagent, FACS + sequencing; frameworks hold sequencing errors
How it was run: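 Using colony PCR, genes from sorted yeast display clones were amplified, then sequenced on MiSeq at 2 × 250 and filtered by CDR length. The clones had been stained with 10% biotinylated, detergent-solubilized Sf9 membrane reagent for 1 hour at 4 °C and sorted by FACS into low and high (top ~1%) gates on anti-HA and streptavidin fluorescence. Polyreactivity labels come from the gate of origin.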

Sequence | polyreactivity (PSR sort gate)
QVQLVESGGGLVQAGGSLRLSCAASGYIFERNAMGWYRQAPGKERELVAAITDDGDDTYYADSVKGRFTISRDNAKNTVYLQMNSLKPEETAVYYCAKDLYYGDYYYWGQGTQVTVSS | low polyreactivity
QVQLVESGGGLVQAGGSLRLSCAASGYIFFGNAMGWYRQAPGKERELVAAIRGRGTSTYYADSVKGRFTISRDNAKNTVYLQMNSLKPEDTAVYYFDADVVRSNFYGTFMYDYDYWGQGTQVTVSS | low polyreactivity
QVQLVESGGGLVQAGGSLRLSCAASGYIFFNYGMGWYRQAPGKERELVAASTTIDGTTYYADSVKGRFTISRDNAKHTVYLQMNSLKPEDTAVYYCNADLYWLWYGEFDYWGQGTQVTVSS | high polyreactivity
QVQLVESGGGLVQAGGSLRLSCAASGYIFFRYAMGWYRQAPGKERELVAAINSSGDSTYADSVKGRFTISRDNAKNTVYLQMNSLKPEDTAVYYCNKDAPLFHDIIIDMDYWGQGTQVTVSS | low polyreactivity
QVQLVESGGGLVQAGGSLRLSCAASGYIFGLYAMGWYRQAPGKERELVASITGGGSTYADSVKGRFTISRDNAKNTVYLQMISLKPEDTAVYYCAAESTVRPYEHSGDYWGQGTQVTVSS | low polyreactivity
QVQLVESGGGLVQAGGSLRLSCAASGYIFGSYVMGWYRQAPGKERELVAAITRIGASTYFADSVKGRFTISRDNAKNTVYLQMNSLKPDDTAVFYCATDQGGYYENDYWGQGTQVTVSS | low polyreactivity
QVQLVESGGGLVQAGGSLRLSCAASGYIFGSYVMGWYRQAPGKERELVAAITRIGASTYYEDSVKGRFTISRDTAKNTVYIQMNSLKPDDTAVYDCATDQGGYYENDYWGQGTQVTVSS | low polyreactivity
QVQLVESGGGLVQAGGSLRLSCAASGYIFGVYAMGWYRQAPGKERELVAAISIGGSTYYADSVKGPFTISRDNAKNTVYLQMNSLKPEDTAVYYCAARGWIRKTSSAYGYWGQGTQVTVSS | high polyreactivity
QVQLVESGGGLVQAGGSLRLSCAASGYIFGVYAMGWYRQAPGKERELVAVITVTGGSTYYADSVKGRFTISRDNAKNTVYLQMNSLKPEDTAVYYCNTLEYLEYDYWGQGTQVTVSS | high polyreactivity
QVQLVESGGGLVQAGGSLRLSCAASGYIFKSYVMGWYRQAPGKERELVAAISWGGGRTYYADSVKGRFTISRDNAKNTVYLQMNSLKPEDTAVYYCAADTKVGNGIKFDYWGQGTQVTVSS | high polyreactivity
QVQLVESGGGLVQAGGSLRLSCAASGYIFKTYDMGWYRQAPGKETELVAAITASGGSTSYADSVKGRFTISRDNAKNTVYLQMNSLKPEDTAVYYCAAVYVRFKAERGVYLYPYDYWGQGTQVTVSS | high polyreactivity
QVQLVESGGGLVQAGGSLRLSCAASGYIFKWYAMGWYIQAPGKERELVAAITWSGDTTYYADSVKGRFTISRDNAQNTVYLQMNSLKPVDTAVYYCAVERDDQDYVYWGQGTQVTVSS | low polyreactivity
QVQLVESGGGLVQAGGSLRLSCAASGYIFKYYAKGWYRQAPGKERELVAAISWDGTDTYYADSVKGRFTISRDNAKNTVYLQMNSLIPEDTAVYYCNADYDVYGWRNYWGQGTHVTVSS | low polyreactivity
QVQLVESGGGLVQAGGSLRLSCAASGYIFLPYAMGWYRQARGKEREVVAAIRWSGGSTYYADSVKGRFTISRDNAKNTVYLQMNSLKPEDTAVYYCAAYYVARDRRYPKAYSYEYWGQGTQVTVLS | high polyreactivity
QVQLVESGGGLVQAGGSLRLSCAASGYIFLWYAMGWYRQAPGKERELVASISSGSTYYADSVKGRFTISRDNAKNTVYLLMNSLKPEDTAVYYCAAGWFASDYYYWGQGTQVTVSS | low polyreactivity
QVQLVESGGGLVQAGGSLRLSCAASGYIFPKNAMGWYRQAPGKERELVAAITGSGGSTYYADSVKGRFTISRDNAKNTVYLQMNSLKPEDTAVYYCAKRSWIEYDYWGQGTQVTVSS | low polyreactivity
QVQLVESGGGLVQAGGSLRLSCAASGYIFPPNAMGWYRQAPGKDRELVAAIRRSTGSTYYADSVKGRFTISRDNAKNTVYLQMNSLKPEDTAVYYCAAYYGYITFGYTYEYWGQGSQVTVSS | high polyreactivity
QVQLVESGGGLVQAGGSLRLSCAASGYIFPSYAMGWYRQAPGKERELVAVITTRGSTYYADSVKGRFTISRDNAKNTVYLQMNSVKAEETAVYYCAAAPYVYWFFVRPYGDDYWGLGTQVTVSS | high polyreactivity
QVQLVESGGGLVQAGGSLRLSCAASGYIFQKNAMGWYRQAPGKERELVAAISSGTDRTYYADSVKGRFTISRDNAKYTVYLQMNSLKPDDTAVYYCAARYWGGYYYWGQGTQVTVSS | high polyreactivity
QVQLVESGGGLVQAGGSLRLSCAASGYIFRAYAMGWYRQAPGKERELVAAITKRSGTTYYADSVKGRFTISRDNAKNTVYLQMNSLKPEDTAVYYCAAKTLYNSGTQDRAMGYWGQGTQVTVSS | high polyreactivity
QVQLVESGGGLVQAGGSLRLSCAASGYIFRSYAMGWYRQAPGKERELVAAITRSGGSTYYADSVKGRFTISRDNAKNTVYLQMNSPKPEDTAVYYCAVLPRGSNGMDYWGQGTQVTVSS | low polyreactivity

Sequence | polyreactivity (PSR sort gate)
QVQLVESGGGLVQAGGSLRLSCAASGYIFSGYAMGWYRQAPGKEMELVAAISSNGGSTYYADSVKGRFTISRDNAKNTVYLQMNSLKPEDTAVYYCNRGLAARVGRGDYWGQGTQVTVSS | low polyreactivity
QVQLVESGGGLVQAGGSLRLSCAASGYIFSYYAMGWNRPAPGKERELVATISSGGSTNYADSVKGRFTISRDNAKNTVYLQMNSLKPEDTAVYYCAATIGHNGFYYWGQGTLVTVSS | low polyreactivity
QVQLVESGGGLVQAGGSLRLSCAASGYIFTGNAMGWYRQAPGKEREFVAAISWSGGSTYYADSVKGRFTISRDNAKNTVYLQMNSLKPEDTAVYDCNKYRPYGRIYHLAYGRDDWGQGTQVTVSS | high polyreactivity
QVQLVESGGGLVQAGGSLRLSCAASGYIFTGNAMGWYRQAPGKERELVAAISKSGSRTYYADSVKGRFTISRDNAKNTVYLQMNSLKPEDTAVYYCNAYSARDSELDYWGQGTQVTVSS | high polyreactivity
QVQLVESGGGLVQAGGSLRLSCAASGYIFTRNAMGWYRQAPGKERELVAAISRSGGSTYYADSLKGRFTISRDNAKNTVYLQMNSLKPEDTSVYYCAAVDKGRPGRDYWGQGTQVTVSS | low polyreactivity
QVQLVESGGGLVQAGGSLRLSCAASGYIFTSYAMGWYRQAPGKERELVATITTGGSTYYADSVKGRFTISRDNAKNTVYLQMNSLKPEDTAVYYCNAVLHGWYDYWGQGTQVTVSS | low polyreactivity
QVQLVESGGGLVQAGGSLRLSCAASGYIFTVYAMGWYRQAPGKERELVAAINWSDGSTYYADSVKGRFTISRDNAKNTVYLQMNSLKPEDTAVYYCATEYWYGIYGYDYWGQGTQVSVSS | high polyreactivity
QVQLVESGGGLVQAGGSLRLSCAASGYIFTYYAMGWYRQAPGKERELVAAISGSDGNTYYADSVKGRFTISRDNAKNTVYLQMTSLKPEDTAVYYCAKSGGLTFRSQRYDYWGQGTQVTVSS | low polyreactivity
QVQLVESGGGLVQAGGSLRLSCAASGYIFVGNAMGWYRQAPGKERELVATIRSSTGNTYADSVKGRFTISRDNAKNTVYLQMNSLKPEDTAVYYCATVYELPGWGREYGYWGQGTQVTVSS | low polyreactivity
QVQLVESGGGLVQAGGSLRLSCAASGYIFVSNAMGWNRQEPGKERELVAPISGSGGSTYYADSVKGRFTISRDIAKNTVYLQMNSLKPEDTAVYSCAADYATVTWRGIAYDYWGQGTQVTVSS | low polyreactivity
QVQLVESGGGLVQAGGSLRLSCAASGYIFWENAMGWYRQAPGKERELVAAITVSGGGTYYADSVKGRFTISRDNAKNSVYLQMNSLKPEVTAVYYCNVYDKAPAYDYWGQGTQVTVSS | low polyreactivity
QVQLVESGGGLVQAGGSLRLSCAASGYIFYANAMGWYRQPPGKERELVAAISWSGGSTYYADSVKGRFTISRDNAKNTVYLQMNSLKPEDTAVYYCAAAYYETPWDYYYWGQGTQVTVSS | low polyreactivity
QVQLVESGGGLVQAGGSLRLSCAASGYIFYGYVMGWYRQAPGKERELVAGITYSGGGGTHYADSVKGRFTISRDNAKNTVYLQMNSLKPEDNAVYYCAKADPQLNRTYYSYGMDYWGQGTQVTVSS | low polyreactivity
QVQLVESGGGLVQAGGSLRLSCAASGYIFYHNTMGWYRQEPGKERELVAAITIGGRTYYADSVKGRFTISRDNAKNTVYLQMNSLKPEDTAVYYCATASYRNPSDYWGQGTQVSVSS | high polyreactivity
QVQLVESGGGLVQAGGSLRLSCAASGYIFYTYAMGCYRQAPGKERELVAGISGSGGSTYYADSVKGRFTISRDNAKNTVYLQMNSLNPEETAVYYCAKDIYQIGYRRYDSWGQGTQVTVSS | low polyreactivity
QVQLVESGGGLVQAGGSLRLSCAASGYIFYVYAMGWYRQAPGKERELVAAINSGDITYYADSVKGRFTISRDNAKNTVYLQMNSLKPEDTAVYYCATVLILIYDYWGQGTQVTVSS | low polyreactivity
QVQLVESGGGLVQAGGSLRLSCAASGYIFYYYTMGWYRQATGKEREFVAAISYSVGSTYADSVKGRFTISRDNAKNTVYLQMNSLKPEDTAVYYCNAVTIRNVYYSGGYWGQGTQVTVSS | high polyreactivity
QVQLVESGGGLVQAGGSLRLSCAASGYIIGGNAMGWYRQAPGKERELVAVISSRGGRTYYADSVKGRFTISRDNAKNTVYLQMNSLKPEDTAVSYCNRDFSYQYKRDYWGQGTQVTVSS | high polyreactivity
QVQLVESGGGLVQAGGSLRLSCAASGYIITSNAMGWYRQAPGKERELVAAITYSDGSTYYADSVKGRFTISRDNAKNTVYLQMNSLIPEDTAVYYCAVDRDYNVAVLRDLDYWGQGTQVTVSS | low polyreactivity
QVQLVESGGGLVQAGGSLRLSCAASGYISFGYAMGWYRQAPGKEREFVAAISVGGGTTYYADSVKGRFTISRDNAKNTVYLQMNSLKPEDTAVYYCAVGKYNYRGSWDYYWGQGTQVTVSS | high polyreactivity
